Here are results for two molecules from patent US20250313631A1 (HUMMINGBIRD BIOSCIENCE PTE, published 2025).

Changes are numbered by the printed parent chain. Read-outs that look alike come from different tables or passages of the source.

For assay [1], the target named is T1, mouse FcγRIV (His-tagged, Sino Biological 50036-M08H) (mouse, UniProt A0A0B4J1G0 21-203).
T1 construct: also called mFcγRIV; not shown: the histidine tag (and any linker) of the Sino Biological construct 50036-M08H
T1 sequence: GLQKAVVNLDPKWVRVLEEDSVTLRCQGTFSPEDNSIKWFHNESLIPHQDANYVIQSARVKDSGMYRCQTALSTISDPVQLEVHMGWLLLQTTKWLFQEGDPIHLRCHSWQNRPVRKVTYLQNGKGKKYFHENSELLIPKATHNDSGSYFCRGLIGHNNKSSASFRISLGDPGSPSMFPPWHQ
Briefly: BLI (Octet QK384): His-tagged receptor on anti-Penta-HIS biosensor, antibody as analyte, PBS pH 7.2.

Assay [2] concerns the target T2, mouse FcRn (His-tagged, Sino Biological CT009-H08H) (mouse, UniProt Q61559 22-297).
T2 construct: also called mFcRn
T2 sequence (looked up): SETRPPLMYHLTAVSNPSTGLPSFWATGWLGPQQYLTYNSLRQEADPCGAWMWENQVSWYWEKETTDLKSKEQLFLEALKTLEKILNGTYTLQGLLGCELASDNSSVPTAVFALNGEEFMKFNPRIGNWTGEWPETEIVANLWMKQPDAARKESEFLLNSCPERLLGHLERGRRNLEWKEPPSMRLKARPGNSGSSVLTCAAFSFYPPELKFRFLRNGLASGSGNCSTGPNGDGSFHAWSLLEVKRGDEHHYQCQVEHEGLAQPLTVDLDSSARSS
Briefly: BLI summary table, mFcRn, pH 5.8.

For assay [3], the target named is T2, mouse FcRn (His-tagged, Sino Biological …). Briefly: BLI (Octet QK384): His-tagged mFcRn on anti-Penta-HIS biosensor, antibody as analyte, PBS pH 5.8, global 1:1 fit. For orientation: In BLI a coated tip is dipped into the sample, and binding shifts an interference pattern.
Assay [4] addresses T3, mouse FcγRIIb (His-tagged, Sino Biological 50030-M08H) (mouse, UniProt P08101 30-217).
T3 construct: also called mFcγRIIb
T3 sequence (looked up): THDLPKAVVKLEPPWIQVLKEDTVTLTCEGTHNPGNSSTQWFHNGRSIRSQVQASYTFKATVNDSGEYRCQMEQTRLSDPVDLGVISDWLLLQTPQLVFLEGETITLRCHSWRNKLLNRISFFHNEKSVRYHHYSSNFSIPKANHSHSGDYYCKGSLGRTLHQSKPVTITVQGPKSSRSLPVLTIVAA
Kind of assay: BLI (Octet QK384): His-tagged receptor on anti-Penta-HIS biosensor, antibody as analyte, PBS pH 7.2.

Assay [5] addresses T2, mouse FcRn (His-tagged, Sino Biological …). Briefly: BLI summary table, mFcRn, pH 5.8. The source holds these as a separate data set.
Assay [6] deals with T4, mouse FcγRIII (His-tagged, Sino Biological 50326-M08H) (mouse, UniProt P08508 31-215).
T4 construct: also called mFcγRIII
T4 sequence (looked up): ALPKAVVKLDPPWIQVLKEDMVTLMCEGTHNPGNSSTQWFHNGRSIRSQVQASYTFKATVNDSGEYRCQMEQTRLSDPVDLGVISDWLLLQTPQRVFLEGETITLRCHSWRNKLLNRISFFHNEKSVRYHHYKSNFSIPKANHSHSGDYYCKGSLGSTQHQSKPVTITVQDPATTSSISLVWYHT
Kind of assay: BLI (Octet QK384): His-tagged receptor on anti-Penta-HIS biosensor, antibody as analyte, PBS pH 7.2.

The target of assay [7] is T2, mouse FcRn (His-tagged, Sino Biological …). Kind of assay: BLI summary table, mFcRn, pH 5.8. This is another data set of the same source.
For assay [8] the target is unchanged. Kind of assay: BLI (Octet QK384): His-tagged mFcRn on anti-Penta-HIS biosensor, antibody as analyte, PBS pH 5.8, global 1:1 fit. This is another data set of the same source.
The target in assay [9] is T3, mouse FcγRIIb (His-tagged, Sino …). Kind of assay: BLI (Octet QK384): His-tagged receptor on anti-Penta-HIS biosensor, antibody as analyte, PBS pH 7.2. This is another data set of the same source.
The target in assay [10] is T1, mouse FcγRIV (His-tagged, Sino …). Kind of assay: BLI (Octet QK384): His-tagged receptor on anti-Penta-HIS biosensor, antibody as analyte, PBS pH 7.2; kon = ND and KD = ND are printed beside it.
Assay [11] shares this target. Briefly: BLI summary table, mFcgRIV, pH 7.2.

B1: 4M2-C12 mIgG2a LALA PG (antibody)
heavy: EVKLVESGPGLVKPSQSLSLTCTVTGYSITSDYAWNWIRQFPGNKLEWMGYITYSGNISYNPSLRSRISITRDTSKNQFFLQLNSVTPEDTATYSCARSLYYPWYFDVWGAGTTVTVSSAKTTAPSVYPLAPVCGDTTGSSVTLGCLVKGYFPEPVTLTWNSGSLSSGVHTFPAVLQSDLYTLSSSVTVTSSTWPSQSITCNVAHPASSTKVDKKIEPRGPTIKPCPPCKCPAPNAAGGPSVFIFPPKIKDVLMISLSPIVTCVVVDVSEDDPDVQISWFVNNVEVHTAQTQTHREDYNSTLRVVSALPIQHQDWMSGKEFKCKVNNKDLGAPIERTISKPKGSVRAPQVYVLPPPEEEMTKKQVTLTCMVTDFMPEDIYVEWTNNGKTELNYKNTEPVLDSDGSYFMYSKLRVEKKNWVERNSYSCSVVHEGLHNHHTTKSFSRTPGK
light: DIVITQTPAILSTSPGEKVTMTCRASSSVGYIHWYQQKPGSSPKPWIYATSNLASGVPARFSGSGSGTSNSLTITRVEAEDAATYYCQQWSSYPPITFGGGTKLEVKRADAAPTVSIFPPSSEQLTSGGASVVCFLNNFYPKDINVKWKIDGSERQNGVLNSWTDQDSKDSTYSMSSTLTLTKDEYERHNSYTCEATHKTSTSPIVKSFNRNEC
Turning to B1, the binding result in assay [1], in [4] and in [6] was “no binding” throughout. Further, the kon in assay [2] and in assay [3] was 270000 M⁻¹ s⁻¹ in each case. Also, the Kd in [3] and in assay [7] was 35.8 nM in each case. Further, the koff in [3] and in assay [5] was 0.0097 s⁻¹ in each case.

B2: 4M2-C12 mIgG2a NQ (antibody)
heavy chain: B1 heavy with A236L, A237L, N299Q, G331P
light chain: B1 light
As to B2, the Kd in assay [8] and in assay [7] was 42.5 nM in each case. Also, the koff in assay [8] was 0.0075 s⁻¹; in assay [10], 0.348 s⁻¹; in assay [11], 0.348 s⁻¹; in [5] it was 0.0075 s⁻¹. The kon in [8] and in assay [2] was 180000 M⁻¹ s⁻¹ throughout. The binding result in assay [9] is “no binding”.

The term kon denotes the rate constant with which the complex forms. A lower kon goes with slower complex formation. For orientation: Kd means the constant that tells how readily two partners part at equilibrium. As usually defined, the koff is a measure of how fast the partners let go of each other. Lower therefore signals a long-lived complex.
